The values that follow come from paper PMC5728393 (Nucleic Acids Research, 2017).

The term Kd denotes a measure of binding affinity in units of concentration. A lower Kd goes with a tighter complex. The stoichiometry N is the number of molecules, sites or subunits per partner or assembly.

T1: PadR (Bacillus spizizenii, UniProt E0TW95)
T1 sequence (E0TW95 1-182): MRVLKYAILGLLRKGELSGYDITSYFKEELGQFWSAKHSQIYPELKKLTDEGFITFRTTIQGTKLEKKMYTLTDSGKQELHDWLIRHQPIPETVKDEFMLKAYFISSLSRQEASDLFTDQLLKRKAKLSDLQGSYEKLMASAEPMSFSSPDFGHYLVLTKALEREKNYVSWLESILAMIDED

T2: PadR WT (Bacillus subtilis, UniProt E0TW95 1-182)
T2 sequence: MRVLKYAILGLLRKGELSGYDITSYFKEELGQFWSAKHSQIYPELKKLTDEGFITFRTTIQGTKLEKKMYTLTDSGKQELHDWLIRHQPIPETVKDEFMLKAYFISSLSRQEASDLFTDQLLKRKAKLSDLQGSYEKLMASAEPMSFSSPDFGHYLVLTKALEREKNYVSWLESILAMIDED

B1: operator T18C/T18'C (dsDNA)
DNA 1: CGGAACATGTGAATAGTCACATGATTAC
DNA 2: GTAATCATGTGACTATTCACATGTTCCG
B2: operator G9T/G9'T (dsDNA)
DNA 1: CGGAACATTTAAATAGTTAAATGATTAC
DNA 2: GTAATCATTTAACTATTTAAATGTTCCG
B3: operator T10A/T10'A (dsDNA)
DNA 1: CGGAACATGAAAATAGTTTCATGATTAC
DNA 2: GTAATCATGAAACTATTTTCATGTTCCG
B4: bridge operator (dsDNA)
DNA 1: AGTTACATGATTACCGGAACATGTAAAT
DNA 2: ATTTACATGTTCCGGTAATCATGTAACT
B5: operator C6T/C6'T (dsDNA)
DNA 1: CGGAATATGTAAATAGTTACATAATTAC
DNA 2: GTAATTATGTAACTATTTACATATTCCG
B6: operator T18G/T18'G (dsDNA)
DNA 1: CGGAACATGTCAATAGTGACATGATTAC
DNA 2: GTAATCATGTCACTATTGACATGTTCCG
B7: operator G9A/G9'A (dsDNA)
DNA 1: CGGAACATATAAATAGTTATATGATTAC
DNA 2: GTAATCATATAACTATTTATATGTTCCG
B8: operator T8A/T8'A (dsDNA)
DNA 1: CGGAACAAGTAAATAGTTACTTGATTAC
DNA 2: GTAATCAAGTAACTATTTACTTGTTCCG
B9: operator C6G/C6'G (dsDNA)
DNA 1: CGGAAGATGTAAATAGTTACATCATTAC
DNA 2: GTAATGATGTAACTATTTACATCTTCCG
B10: operator C6A/C6'A (dsDNA)
DNA 1: CGGAAAATGTAAATAGTTACATTATTAC
DNA 2: GTAATAATGTAACTATTTACATTTTCCG
B11: operator T17A/T17'A (dsDNA)
DNA 1: CGGAACATGTATATAGATACATGATTAC
DNA 2: GTAATCATGTATCTATATACATGTTCCG
B12: phenolic acid decarboxylase regulator (PadR) from Bacillus subtilis, wild type (natural protein, UniProt E0TW95 1-182, looked up)
chain: MRVLKYAILGLLRKGELSGYDITSYFKEELGQFWSAKHSQIYPELKKLTDEGFITFRTTIQGTKLEKKMYTLTDSGKQELHDWLIRHQPIPETVKDEFMLKAYFISSLSRQEASDLFTDQLLKRKAKLSDLQGSYEKLMASAEPMSFSSPDFGHYLVLTKALEREKNYVSWLESILAMIDED

The first series deals with T1, PadR. Briefly: X-ray crystal structure of the complex. The conditions noted are these: 10 mM ferulic acid soak, 22% PEG 3350, 0.1 M sodium acetate pH 4.0; interdomain pocket. The format is binding.
For the molecule `COc1cc(/C=C/C(=O)O)ccc1O` [ferulic acid], the “X-ray crystal structure of the complex (soaked crystals)” value is “we also determined a PadR structure in complex with ferulic acid (PadR3FA)”.

For a further series, the target named is T2, PadR WT. Briefly: fluorescence polarization.
Conditions: not given
In general terms: In fluorescence polarisation assays a small probe gives low polarisation when free and higher when bound to something large.
Take B1: binding was characterised by a dissociation constant (Kd) of 20.8 ± 1.9 nM.
In turn, B2 had a Kd of 37.8 ± 6.7 nM.
Molecule B3 gave an equilibrium dissociation constant (Kd) of 11.6 ± 1.3 nM.
B4 displayed an equilibrium dissociation constant (Kd) of 8.9 ± 2.1 nM.
B5 showed a dissociation constant Kd of 160 ± 6.9 nM.
Still for that read-out and setting: as for B6, the figure is 9.9 ± 1.7 nM.
B7 registered a Kd of 15.7 ± 2.9 nM.
For B8, the Kd was found to be 41 ± 4 nM.
For the molecule B9, binding was characterised by a dissociation constant (Kd) of 200 ± 21.7 nM.
The molecule B10 registered a Kd of 312 ± 45.5 nM.
Turning to B11, binding was characterised by a dissociation constant (Kd) of 9.4 ± 1.4 nM.

The target in a further series is T1, PadR. Briefly: isothermal titration calorimetry. Format: binding.
Conditions: not given
The molecule `O=C(O)/C=C/c1ccc(O)cc1` [p-coumaric acid] displayed a Kd of 6.2 ± 0.1 µM.

The next series deals with the molecule itself. Briefly: SEC.
Conditions: not given
For the molecule B12, the “stoichiometry N” value turned out to be 2.
